From publication PMC4537474 (Protein & Cell, 2015)

B1: Shewanella oneidensis FadR protein (natural protein, Shewanella oneidensis MR-1, UniProt Q8ED80 1-240, looked up)
chain: MIINAKGPASFAEKYIVRSIWENKFPPGSILPAERELSELIGVTRTTLREVLQRLARDGWLKIQHGKPTRVNNFWETSGLNILETIADLNPEGFPVLVDQLLSARTNVSAIYFRGALRNNPDTAMEVLAQIHQLEDTAESFAEYDYLLHHTLAFSSGNPLYVLILNGFKGLYSRVGRYYFSSSEARQLALNFYKELELLAKAKNYLDVPALMRTYGINSGKMWLQLRDDMPSSIAQQDSH
B2: fabB_ec probe (dsDNA)
DNA 1: TCTATTAAATGGCTGATCGGACTTGTTCGGCGTACAAGTGTACGCTATTGTGCATTC
DNA 2: GAATGCACAATAGCGTACACTTGTACGCCGAACAAGTCCGATCAGCCATTTAATAGA
B3: fabA_she probe, biotinylated (dsDNA)
DNA 1: GACATTAATTAGCTGATCGGAGTTGTTTAGCTTACACGTGTTCGCTAATCTTGGCG
DNA 2: CGCCAAGATTAGCGAACACGTGTAAGCTAAACAACTCCGATCAGCTAATTAATGTC
B4: fabA_she probe (dsDNA)
DNA 1: GACATTAATTAGCTGATCGGAGTTGTTTAGCTTACACGTGTTCGCTAATCTTGGCG
DNA 2: CGCCAAGATTAGCGAACACGTGTAAGCTAAACAACTCCGATCAGCTAATTAATGTC
B5: fabA_ec probe (dsDNA)
DNA 1: TTTATTCCGAACTGATCGGACTTGTTCAGCGTACACGTGTTAGCTATCCTGCGTGC
DNA 2: GCACGCAGGATAGCTAACACGTGTACGCTGAACAAGTCCGATCAGTTCGGAATAAA

Experiments:
[1] = target: the molecule itself; assay: SEC; Superdex 75 column on an Akta FPLC, 0.35 mL/min, 20 mmol/L Tris-HCl, 50 mmol/L NaCl, pH 7.9; peak at 10.5 mL, between the 44 kDa and 67 kDa standards
[2] = target: FadR_vc (Vibrio cholerae, UniProt Q9KQU8 1-279); assay: EMSA; 5 pmol protein; super-shifted band attributed to multimer; EMSA: Roche binding buffer, 20 min, room temperature, 0.2 pmol DIG probe (10 uL in Fig. 6), 7% native PAGE; SPR: Biacore3000, 20 mM Tris-HCl pH 7.5, 200 mM NaCl
[3] = target: T1, FadR_ec (Escherichia coli (K-12), UniProt P0A8V6 1-239); assay: EMSA; 5 pmol protein, 0.2 pmol probe; EMSA: Roche binding buffer, 20 min, room temperature, 0.2 pmol DIG probe (10 uL in Fig. 6), 7% native PAGE; SPR: Biacore3000, 20 mM Tris-HCl pH 7.5, 200 mM NaCl
[4] = target: T2, FadR_she (Shewanella oneidensis, UniProt Q8ED80 1-240); assay: as above
[5] = target: T2, FadR_she; assay: SPR; 2:1 (FadR dimer per DNA); EMSA: Roche binding buffer, 20 min, room temperature, 0.2 pmol DIG probe (10 uL in Fig. 6), 7% native PAGE; SPR: Biacore3000, 20 mM Tris-HCl pH 7.5, 200 mM NaCl
[6] = target: T1, FadR_ec; assay: EMSA; C10:0-CoA ~50 pmol; EMSA: Roche binding buffer, 20 min, room temperature, 0.2 pmol DIG probe (10 uL in Fig. 6), 7% native PAGE; SPR: Biacore3000, 20 mM Tris-HCl pH 7.5, 200 mM NaCl

T1 sequence (P0A8V6 whole entry): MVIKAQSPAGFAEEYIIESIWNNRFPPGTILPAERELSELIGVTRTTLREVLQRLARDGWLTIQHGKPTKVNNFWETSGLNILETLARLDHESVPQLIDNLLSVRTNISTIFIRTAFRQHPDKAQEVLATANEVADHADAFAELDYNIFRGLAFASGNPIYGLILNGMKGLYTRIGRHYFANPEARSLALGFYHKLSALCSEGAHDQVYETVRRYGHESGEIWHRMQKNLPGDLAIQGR
Sequence of FadR_vc (Q9KQU8 whole entry): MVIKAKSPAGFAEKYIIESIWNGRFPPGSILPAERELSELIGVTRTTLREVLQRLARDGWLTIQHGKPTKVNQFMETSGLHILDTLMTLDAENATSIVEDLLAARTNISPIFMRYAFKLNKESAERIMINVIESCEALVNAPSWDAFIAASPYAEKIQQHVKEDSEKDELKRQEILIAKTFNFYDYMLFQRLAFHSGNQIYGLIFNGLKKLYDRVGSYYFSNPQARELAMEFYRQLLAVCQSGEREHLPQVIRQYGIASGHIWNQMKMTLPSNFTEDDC

Binder	binding result [2]	binding result [3]	binding result [4]	other results
B1				stoichiometry N [1]: 2
B2	binds	binds	binds	
B3				Kd [5]: ~436 nM
B4				binding result [6]: binds
B5	binds	binds	binds	
